Columns and labels:
[1] = test system: Lrp;MBP-RctB (Escherichia coli;Vibrio cholerae); assay: EMSA; details: scale: fold higher RctB affinity than to naked crtS
[2] = test system: Lrp (Escherichia coli); assay: EMSA

With “crtS (153 bp with ~100 bp lambda flanks)” the binding signal [1] was 10 and the Kd [2] was 5.5 nM.

Reference: PMC6139311
